Laboratory results published in the domain aggregation screens of Martell et al. (2025).

Experiment: soluble fraction after stress (log2 fold change); higher = more stays soluble; pooled small domains, quantitative proteomics
Conditions: stress: pH 4
Summary of the method: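 High-throughput quantitative proteomics was run on pooled custom libraries of small protein domains following pH 4 stress. Fold changes are on a log2 scale; higher values mean more of a domain remained soluble. The fold change in soluble amount is taken as a measure of aggregation propensity.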

HMLERKFGTSLEIKSLSKFLIENNYKKNAKYLNKLIQVLGTRSENRIIKTFFKQFPEIENIFRNQL
soluble fraction (log2): -0.493

HMLETADDAKRFLGAIISEKKAENLLRVYPDIIERIVAGKPVDLSLVKGIKQKTFDKLRQKVISHYSMY
soluble fraction (log2): -0.0382

HMLETHRRRQIILSLLRESGMLDVDEVAARLVVSPNTIRNDFNALAAEGLLRRIRGGATLAEP
soluble fraction (log2): -0.171

HMLFKNASGTVVSRIQSQVDGQINIRTGSGNAPDYAFVAKPDGAVELYHNGTKQFETGSSGVLLP
soluble fraction (log2): -0.527

HMLFQQPATMIGKIGVAMSDLRPSGKIKIDDEWYDGQSEGDYILKGQEIIVVQVMNAYLIVRL
soluble fraction (log2): -0.44

HMLFRGNGFNTLYDKQLRITQQGEFKDGRLWDGKYYRYSKAGELVRIEIYEQGRYAGNGVITDEDKA
soluble fraction (log2): -0.0519

HMLFSDSDLKSLLDKDISYVIEMYKAASKEQKRIISDMVAQKVMEKKYIDANILIQLGELTGINYMDL
soluble fraction (log2): -1.32

HMLFSEKLKQAMQDLHLNQIQVVGLTGKSKGSISQYISGKQVPSEATQRDIAISLGLEENYFSKK
soluble fraction (log2): 0.216

HMLFYSDLVRLISFAEATLGKNEFETWYMSHHQGMKYTEIAIALGISVRTVEDRIARTKNHFRKI
soluble fraction (log2): -1

HMLGAGFDSDLTARENIFLNGALLGHSRAVMRGYYDDIVNFAELHDFMDVPVKNFSSGMTSRLAFSIATIG
soluble fraction (log2): 0.183

HMLGARIAALRRQAGMNQGELAKKLGISPSTVGMYEQGRREPSAEMLVRLAEAFSVSTDFLLT
soluble fraction (log2): -0.0832

HMLGERIRRLRKEMGMSVTELARRVKTSPSYISEIEKGEKTPSLNLLVRIASELRTGIDYLTGL
soluble fraction (log2): -0.00698

HMLGIGANVQKIAQERKISLKELSRRAGIPYTTIYNMVKRDSSRVSPENLQKLADALGVEIGKLYG
soluble fraction (log2): ≥ 0.43

HMLGSQQAYTDALRLTGLPVDIEVIESDRLPFLIPMRYSLDQHLIEVNVRYPDTRAIRVQQMVEELFHA
soluble fraction (log2): -0.415

HMLGVKKFGGEAVIAGNIILRQRGTKWITGSNVGIGKDHTLFAKIEGYVVFERMRGRDGQQQISIYP
soluble fraction (log2): -0.192

HMLGYQALASAFRSKVEAGIWPIGEAIPSEARLSKEYGVAVGTIRQAIAELAEEGILIKRHGKSTMVSSG
soluble fraction (log2): 0.101

HMLHEFSGVVVSILADTGPSTLKQLHRSLISSDVKMDEKELMQILDEALSSGSVTSHRKGRYLYYSANK
soluble fraction (log2): -0.399

HMLHIKKGDTVIVNAGESKGQQGKVLEVLVGKERAIVEGVNMVSKHTKPNAKNPQGGIVKKEAPIHISNLQ
soluble fraction (log2): 0.0699

HMLHPLLWAVDEPTPVTVRTRPEYVPDVVRWLMQPESQREHDGVVDLRYTVTHRAAFRSRIYVLGTRVTIP
soluble fraction (log2): 0.17

HMLIADADSLRKQIETVLANAPNEVAAYRGGKETLMGWFVGQIMRATGGKADPKLTREILAELLQ
soluble fraction (log2): -0.126

HMLIADSDALRSQIESILNGNPNEVASFRAGKESLMGWFVGQVMRSTGGKADPKRTRELLQELLTK
soluble fraction (log2): -0.0841

HMLIDSEILKKTNKITIFLIYAFFSEYLINKEKKKILIGEYIKLSKDFLTIEEVKYFNHLLDDISK
soluble fraction (log2): -0.304

HMLIDSNNYFFYKVKPKEGFYSLQKKLGVNRSEIEKHNPSLINEVLKEGMILKIPKYLLNFDLN
soluble fraction (log2): -0.214

HMLILTWNYPYEYPMMMRSFLQEIGISRTFLAHIKSNGELLINGRHEIVLKTLQPGDVLTMVIPPSG
soluble fraction (log2): -0.78

HMLINLGPRIRKERRSKGISQSDFSKNLGISASYLNLLENGRRTLTVPLLIKIGNELNLSLKDL
soluble fraction (log2): 0.113

HMLISAESVKRRLEMIRHLILLGDYEDVTAQVIKLNPAANEYKLTPIIEELNGGKYQEALEKINSYLSKF
soluble fraction (log2): -0.127

HMLISKNLLGFTIKNTSGVTFGTLKDIMWLPSNDVYVIDNNGKEYLIPVISEIVKSINYDKGSITIFP
soluble fraction (log2): -0.398

HMLKASEVLPYVFTDKFFIDDLNLKQDQILGFLEYIDSKLPSQKLLQVSQQFQLIDFLINESKNYKNQ
soluble fraction (log2): -0.252

HMLKDININVTGLDQISNAKLINNLNLLKMNNLFFLDEKKIKKILNSNNLIEKFFIFKKYPSTLDIKVYKT
soluble fraction (log2): 0.22

HMLKHNLLSELSRIEGVGAVKRKALMDKFGTVENIKRASEEELSEVAGIGPTLARTIKEQMNKDE
soluble fraction (log2): -0.2

HMLKKRKPMSGVGVIVKGMLTGTVTGTDGSYALKARPNDELSFSFLGYKTQEVFVGSKSTIDITLVDEA
soluble fraction (log2): -0.0294

HMLKLEEIQPNATVRGILPDALITVVNVKWFGSEALELTYKDTSGRVANQLLFRDDQPRLEIVE
soluble fraction (log2): -1.12

HMLKLEPYTINEINSLQELYDLGNVRALETLISIYKDKNQVYDTRFYVLDILSKYDNPLIQEALEESITN
soluble fraction (log2): -1.89

HMLKLPVEYLNLKYQLMHATSLDKPNNLMKLDEKLGKIIDVYYDDLPVDEQRVVDILQSKLYSY
soluble fraction (log2): -1.72

HMLKLYILTDGKNYVMDDPIHPGRVMYSTSPVNAKKFTFKQARALLNNKSKKLSWIRSFNMVDDSSGEKI
soluble fraction (log2): 0.417

HMLKREDEVIVVAGKDKGKRGTITQLVGDDRVIVAGVNMVKRHTKPNPNLGQPGGIVEREASLHISNV
soluble fraction (log2): -0.162

HMLKVHPRDQEENRLLLLKGERLYEESTGDTRVMIDMWLRKFEEALNSRSRENIEDARRELKEQLAELDN
soluble fraction (log2): -0.312

HMLLAPLRLGAAPDIKAQAPLATILARHNGEMEAKDLWQRFGGEIDAFYLQLKTEVAHGWIVEPEPA
soluble fraction (log2): 0.0787

HMLLELINLQVKILENEELKIIGKVIDLENEKNNLLVIELLKDQKKVLVPFVKEIVPLIDIKNNFIMINPP
soluble fraction (log2): -0.703

HMLLFNVADIVKRAKRVLNFKTDAELAAYLGVSRPTLSNWIARNGIDFPLLLEKLKEIDYNWLLVGKGKPE
soluble fraction (log2): -0.114

HMLLGPDALTNRELDVLALLERRLSNKEIGALLYISPRTVKRHTINIYQKLHVNNRRAAVAQAKALGLMPD
soluble fraction (log2): -0.489

HMLLKIRPDLDGNEIMKLLNIAAGPNVGKAYEHLLELRLEHGPLGKERAEQELMNWWSARSQ
soluble fraction (log2): -0.371

HMLLNSLIDTLAAEKATVVPGTEVFKLYDTYGFPWELTEEIASERGFTIDHEGFEAAMKEQRERAREARV
soluble fraction (log2): 0.0336

HMLLNTSQLKELYNRYDKKNSSLISIPFSAISDEPLKFYKWYAALFQIELNVKAFADVDSKQIIIYKGTK
soluble fraction (log2): -0.175

HMLLRSEDAIELGKSQLEDALAPYKIETLDTGTVQQLLDSLKLNSLESLYQEIGLGNRMSTIIAHRLLGE
soluble fraction (log2): -0.88

HMLLSFYGTYGNVKLTGKELEDLQKEFPFDYQARIDRLSAYMESSGRKYHSHFATIRSWAQDDAKKN
soluble fraction (log2): 0.173

HMLLSYDIAEYIEKYIHEHGLQPGDRLPTERELAAQLDITRVSVRQGYKRLLDQGVIRSENGYYVNPPR
soluble fraction (log2): 0.0914

HMLLTDGLERRIDGDKNLHIRISLPMLVKGQIKLAKSGNNESTVKGIFKIESYPGSHPRDVVTEIIEG
soluble fraction (log2): -0.0816

HMLLTHPKRVFTYELIMELVWNEDYTFYSKKAVSNHMSNLRKKLKVTPDALDYIKNIVGVGYKFEA
soluble fraction (log2): -0.0812

HMLMKKTITHEIELLEFLKQIFPQSSTNKLRKMLSNGRIKINSEIVHKAKYKLQENDTFELLDNPT
soluble fraction (log2): -0.0208

HMLNEIMDTINKYISDKRNNKVAQNILSAALDELNSQIRVGLKDLNPHSIEEFKENVINSPYIEFEQG
soluble fraction (log2): -0.126

HMLNEWIDYIDEHIKEELTAKNLATVFGYSERHFRNVFQIYYDIKLNDYIRRRKLYFAAQELKKG
soluble fraction (log2): -1.76

HMLNMSVYDKQLLRAVENNPFISQRELARELHWNVDRVKYYMKKWKDKGGLRHVGSSHKGYWEVLVRIEEK
soluble fraction (log2): -0.0578

HMLNNVDIHKLSEDLLLYKIKIDIKLKNIEDAISTIDYFSNKFPNSDLMPYVIYEKKLIDNI
soluble fraction (log2): -0.741

HMLNPLLLPFVEAEDFQVKLEILAAMEGKVGEEDLDILYEALDLPKMTGNIEEQIHSIKQYIEMRK
soluble fraction (log2): -1.39
